# Results reported in PMC3897377, “Utilizing Nanobody Technology to Target Non-Immunodominant Domains of VAR2CSA” (PLoS ONE, 2014).
# B1: Nb09 (VHH)
# VHH: QVQLQESGGGLVQAGGSLRLSCAASGRTFSNYGMGWFRQTPEKERDLLAAVTWSGGRTYYADSVKGRFTISRDNAKNTVYLQMNSLKPEDTAVYYCAAGELFYSDYGPEGEWDYWGQGTQVTVSS
# notes: from an alpaca immunized with full-length VAR2CSA; pHEN6c vector; also called Nanobody 09; VHH; source: E. coli WK6, periplasmic extract, purified (HisTrap); not shown: His6, C-terminal, kept
# B2: Nb04 (VHH)
# VHH: QVQLQESGGGLAQPGGSLRLSCTASGRIYRMAWFRQAPGKERELVASITHIGATNYADSVKGRFTISRDNFKNTMYLQMNDLKPEDTAVYYCNAASSWGKGTQVTVSS
# notes: from an alpaca immunized with full-length VAR2CSA; pHEN6c vector; also called Nanobody 04; VHH; source: E. coli WK6, periplasmic extract, purified (HisTrap); not shown: His6, C-terminal, kept
# Columns and labels:
# [1] = target: T1, full-length VAR2CSA (FV2) recombinant protein, FCR3 (Plasmodium falciparum FCR3, UniProt Q6UDW7, strain); experiment: ELISA; recombinant VAR2CSA protein or domain (50 nM in PBS) coated on MaxiSorp plates overnight at 4°C; Nb 50 nM in 1% skim milk in PBS, 90 min RT; detected with rabbit anti-camel and HRP anti-rabbit, OD 490 nm after 20 min; details: both partners purified
# T1 construct: VAR2CSA (PfEMP1 family), Plasmodium falciparum strain FCR3, full-length recombinant protein; also called FV2-FCR3; source: recombinant, purified, expressed as described in [33]
# [2] = target: T2, ID1–ID2a minimal CSA-binding region of VAR2CSA, baculovirus-produced (Plasmodium falciparum FCR3, UniProt Q6UDW7, strain); experiment: as above; details: both partners purified
# T2 construct: VAR2CSA, P. falciparum FCR3; ID1–ID2a region encompassing DBL2X with the flanking parts ID1 and ID2; also called ID1–ID2a (BV); source: baculovirus expression system, as described in [11], [20]
# [3] = target: T3, DBL1-ID2a protein of VAR2CSA (containing minimal CSA-binding region), baculovirus-produced (Plasmodium falciparum FCR3 (assumed for …, UniProt Q6UDW7, strain)); experiment: far-Western, overlay or dot blot; Western blot: recombinant VAR2CSA domain (0,4 µg/lane) run NON-REDUCED on SDS gel, blotted to nitrocellulose, probed with 50 nM Nb in TBST; rabbit anti-camel and HRP anti-rabbit; details: both partners purified
# T3 construct: DBL1-ID2a; source: baculovirus-produced
# [4] = target: T4, ID1–ID2a minimal CSA-binding region of VAR2CSA, produced in Schneider 2 (S2) cells (Plasmodium falciparum FCR3, UniProt Q6UDW7, strain); experiment: ELISA; recombinant VAR2CSA protein or domain (50 nM in PBS) coated on MaxiSorp plates overnight at 4°C; Nb 50 nM in 1% skim milk in PBS, 90 min RT; detected with rabbit anti-camel and HRP anti-rabbit, OD 490 nm after 20 min; details: both partners purified
# T4 construct: ID1–ID2a region; also called ID1–ID2a (S2); source: Schneider 2 (S2) cells
# [5] = target: T5, DBL1-ID2a of VAR2CSA of the heterologous 3D7 parasite line (Plasmodium falciparum 3D7, UniProt Q8I639, strain); experiment: as above; details: both partners purified
# T5 construct: VAR2CSA, P. falciparum strain 3D7; also called 3D7 DBL1-ID2a; source: baculovirus expression system
# [6] = target: T6, ID1–ID2a minimal CSA-binding region of VAR2CSA, produced in E. coli (Plasmodium falciparum FCR3, UniProt Q6UDW7, strain); experiment: as above; details: both partners purified
# T6 construct: ID1–ID2a region; also called ID1–ID2a (coli); source: E. coli
# [7] = target: T7, ID1–ID2a of VAR2CSA of the heterologous 3D7 parasite line (Plasmodium falciparum 3D7, UniProt Q8I639, strain); experiment: as above; details: both partners purified
# T7 construct: VAR2CSA, P. falciparum strain 3D7; also called 3D7 ID1–ID2a; source: baculovirus expression system
# [8] = target: T8, VAR2CSA DBL6 domain, baculovirus-produced (Plasmodium falciparum FCR3, UniProt Q6UDW7, strain); experiment: as above; details: both partners purified
# T8 construct: DBL6 domain; also called DBL6ε; source: baculovirus expression system, as described in [11], [20]
# [9] = target: T9, VAR2CSA DBL3 domain, baculovirus-produced (Plasmodium falciparum FCR3 (implied), UniProt Q6UDW7, strain); experiment: as above; details: both partners purified
# T9 construct: DBL3 domain; also called DBL3X; source: baculovirus expression system, as described in [11], [20]
# [10] = target: T10, native VAR2CSA on the surface of NF54 infected erythrocytes (Plasmodium falciparum NF54 (VAR2CSA …, UniProt Q8I639, strain)); experiment: flow cytometry on cells; late stage VAR2CSA-expressing IE (FCR3, 7201, NF54) incubated with Nb (0,1 mg/ml), 30 min at 4°C; detected with mouse anti-penta-His and FITC anti-mouse; specific recognition defined by an MFI ratio >1.2; details: one partner purified
# T10 construct: VAR2CSA of the P. falciparum parasite line NF54, native protein on infected erythrocytes; also called VAR2CSA-expressing IE (NF54); source: endogenous, on P. falciparum NF54-infected erythrocytes
# [11] = target: T8, VAR2CSA DBL6 domain, …; experiment: ELISA; recombinant VAR2CSA protein or domain (50 nM in PBS) coated on MaxiSorp plates overnight at 4°C; Nb 50 nM in 1% skim milk in PBS, 90 min RT; detected with rabbit anti-camel and HRP anti-rabbit, OD 490 nm after 20 min; details: both partners purified; remark: listed apart in the source
Binder,binding result [1],binding result [2],binding result [3],binding result [4],binding result [5],binding result [6],binding result [7],binding result [8],binding result [9],binding result [10],binding result [11]
B1,binds,binds,binds,binds,binds,binds,binds,no binding (tested: 50 nM),no binding (tested: 50 nM),binds,
B2,binds,,,,,,,,no binding (tested: 50 nM),binds,binds
